According to publication PMC8684761 (Molecular Biology of the Cell, 2021):

Molecular target: T1, 6His-She1 C-terminal fragment (residues 194-338) (S. cerevisiae, UniProt P38200 194-338)
T1 sequence (looked up): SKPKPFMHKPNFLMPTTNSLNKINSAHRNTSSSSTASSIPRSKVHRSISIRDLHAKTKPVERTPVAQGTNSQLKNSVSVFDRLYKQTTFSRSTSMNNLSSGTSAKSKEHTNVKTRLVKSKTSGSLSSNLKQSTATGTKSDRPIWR
Experiment: pull-down

B1: peptide encompassing the C-terminus of Tub1 (amino acids 415-447), wild type (peptide)
peptide: not shown
B1: binds.
